Results as given in the supplement of paper PMC11780869.

What follows are sequences tested on Bacillus subtilis (assay: cleaved RNA product abundance (RNA/gDNA barcode ratio) relative to median wild-type variant (ratio to wild type); higher = more accumulation of the downstream cleavage product). Conditions: experiment (reporter, strain, medium): exp 8a: truncated aprE reporter, strain BJT201 with 2% xylose (RNase J1 expressed); cleavage site: glnRA (positions -5 to +31 mutated).
Method in brief: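 Cleaved product abundance is expressed as the RNA:gDNA barcode ratio per construct, scaled to the median construct carrying the unmutated site. The constructs were barcoded, mutagenized RNase Y cleavage-site windows in truncated aprE or tetM reporter mRNAs integrated into the B. subtilis chromosome. Cultures grew in LB at 37°C from OD600 0.0003 to 0.3 before cleaved RNA was gel-selected and barcode-sequenced.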

Row | Sequence | cleaved RNA product abundance
1 | CGACATGTCCCGCTTCTTTCATTAATCCGATAGCAACTGTTTTGCTATATACATCTACCTTTTAAGAGGAGGAAT | 0.88
2 | CGACATGTCCCGCTTCTTTCATTAATCCGATAGCAACTGTTTTGCTATATACATTGACCTTTTAAGAGGAGGAAT | 0.721
3 | CGACATGTCCCGCTTCTTTCATTAATCCGATAGCAACTGTTTTGCTATATACATTTAACTTTTAAGAGGAGGAAT | 0.63
4 | CGACATGTCCCGCTTCTTTCATTAATCCGATAGCAACTGTTTTGCTATATACATTTACCTTTTAAGAGGAGGAAT | 0.795
5 | CGACATGTCCCGCTTCTTTCATTAATCCGATAGCAACTGTTTTGCTATATACATTTACTTTTTAAGAGGAGGAAT | 0.547
6 | CGACATGTCCCGCTTCTTTCATTAATCCGATAGCAACTGTTTTGCTATATAGATTTACCTTTTAAGAGGAGGAAT | 1.02
7 | CGACATGTCCCGCTTCTTTCATTAATCCGATAGCAACTGTTTTGCTATTTACATTTACCTTTTAAGAGGAGGAAT | 0.189
8 | CGACATGTCCCGCTTCTTTCATTAATCCGATAGCAACTGTTTTGTTATATACATTTACCTTTTAAGAGGAGGAAT | 0.378
9 | CGACATGTCCCGCTTCTTTCATTAATCCGATAGCAACTGTTTTTCTATATACATTTACCTTTTAAGAGGAGGAAT | 0.413
10 | CGACATGTCCCGCTTCTTTCATTAATCCGATAGCAACTTTTTTGCTATATACATTTACCTTTTAAGAGGAGGAAT | 1.24
11 | CGACATGTCCCGCTTCTTTCATTAATCCGATATCAACTGTTTTGCTATATACATTTACCTTTTAAGAGGAGGAAT | 0.242
12 | CGACATGTCCCGCTTCTTTCATTAATCCGATCGCAACTGTTTTGCTAGATACATTTACCTTTTAAGAGGAGGAAT | 0.119
13 | CGACATGTCCCGCTTCTTTCATTAATCCGATGGCAACTGTTTTGCTATATACATTTACCTTTTAAGAGGAGGAAT | 0.74
14 | CGACATGTCCCGCTTCTTTCATTAATCCGATTGCAACTGTTTTGCTATATACATTTACCTTTTAAGAGGAGGAAT | 0.294
15 | CGACATGTCCCGCTTCTTTCATTAATCCGCAGGCAACTGTTTTTCTAAATACAAATACCTTTTAAGAGGAGGAAT | 0.213
16 | CGACATGTCCCGCTTCTTTCATTAATCCGCCAGCAACTGTTTTGCTATATAGATTTACCTTTTAAGAGGAGGAAT | 0.284
17 | CGACATGTCCCGCTTCTTTCATTAATCCGCGAGCAACTGTTTTGCTATATACATTTACCTTTTAAGAGGAGGAAT | 0.318
18 | CGACATGTCCCGCTTCTTTCATTAATCCGGTAACAACTGTTTTGCTATATACATTTACCTTTTAAGAGGAGGAAT | 0.34
19 | CGACATGTCCCGCTTCTTTCATTAATCCGGTAGCAACTGTTATGCTATATACATTTACCTTTTAAGAGGAGGAAT | 1.02
20 | CGACATGTCCCGCTTCTTTCATTAATCCGGTAGCAACTGTTTTGATATATACATTTACCTTTTAAGAGGAGGAAT | 0.316
21 | CGACATGTCCCGCTTCTTTCATTAATCCGGTAGCAACTGTTTTGCAATATACATTTACCTTTTAAGAGGAGGAAT | 0.533
22 | CGACATGTCCCGCTTCTTTCATTAATCCGGTAGCAACTGTTTTGCTAGATACATTTACCTTTTAAGAGGAGGAAT | 0.545

Row | Sequence | cleaved RNA product abundance
23 | CGACATGTCCCGCTTCTTTCATTAATCCGGTAGCAACTGTTTTGCTATATACATTTACCTTTTAAGAGGAGGAAT | 0.945
24 | CGACATGTCCCGCTTCTTTCATTAATCCGGTATCAACTGTTTTGCTATATACATTTACCTTTTAAGAGGAGGAAT | 0.375
25 | CGACATGTCCCGCTTCTTTCATTAATCCGTAAACAACTCTTTTGCTATATACATTTACCTTTTAAGAGGAGGAAT | 0.202
26 | CGACATGTCCCGCTTCTTTCATTAATCCGTAAACAACTGTTTTGCTATATACATTTACCTTTTAAGAGGAGGAAT | 0.159
27 | CGACATGTCCCGCTTCTTTCATTAATCCGTAACCAACTGTTTTGCTATATACATTTACCTTTTAAGAGGAGGAAT | 0.187
28 | CGACATGTCCCGCTTCTTTCATTAATCCGTAAGCAACAGTTTTGCTATATACATTTACCTTTTAAGAGGAGGAAT | 0.348
29 | CGACATGTCCCGCTTCTTTCATTAATCCGTAAGCAACTGATTTGCTATATACATTTACCTTTTAAGAGGAGGAAT | 0.25
30 | CGACATGTCCCGCTTCTTTCATTAATCCGTAAGCAACTGTATTGCTATATACATTTACCTTTTAAGAGGAGGAAT | 0.367
31 | CGACATGTCCCGCTTCTTTCATTAATCCGTAAGCAACTGTTTCGCTATATACATTTACCTTTTAAGAGGAGGAAT | 0.145
32 | CGACATGTCCCGCTTCTTTCATTAATCCGTAAGCAACTGTTTGGCTATATACATTTACCTTTTAAGAGGAGGAAT | 0.371
33 | CGACATGTCCCGCTTCTTTCATTAATCCGTAAGCAACTGTTTTACTATATACATTTACCTTTTAAGAGGAGGAAT | 0.583
34 | CGACATGTCCCGCTTCTTTCATTAATCCGTAAGCAACTGTTTTCCTATATACATTTACCTTTTAAGAGGAGGAAT | 0.354
35 | CGACATGTCCCGCTTCTTTCATTAATCCGTAAGCAACTGTTTTGATATATACATTTACCTTTTAAGAGGAGGAAT | 0.329
36 | CGACATGTCCCGCTTCTTTCATTAATCCGTAAGCAACTGTTTTGCCATATACATTTACCTTTTAAGAGGAGGAAT | 0.295
37 | CGACATGTCCCGCTTCTTTCATTAATCCGTAAGCAACTGTTTTGCTAAATACATTTACCTTTTAAGAGGAGGAAT | 0.36
38 | CGACATGTCCCGCTTCTTTCATTAATCCGTAAGCAACTGTTTTGCTACATACATTTACCTTTTAAGAGGAGGAAT | 0.38
39 | CGACATGTCCCGCTTCTTTCATTAATCCGTAAGCAACTGTTTTGCTATATAAATTTACCTTTTAAGAGGAGGAAT | 0.474
40 | CGACATGTCCCGCTTCTTTCATTAATCCGTAAGCAACTGTTTTGCTATATACAATTACCTTTTAAGAGGAGGAAT | 0.478
41 | CGACATGTCCCGCTTCTTTCATTAATCCGTAAGCAACTGTTTTGCTATATACATATACCTTTTAAGAGGAGGAAT | 0.551
42 | CGACATGTCCCGCTTCTTTCATTAATCCGTAAGCAACTGTTTTGCTATATACATTAACCTTTTAAGAGGAGGAAT | 0.756
43 | CGACATGTCCCGCTTCTTTCATTAATCCGTAAGCAACTGTTTTGCTATATACATTTAACATTTAAGAGGAGGAAT | 0.275
44 | CGACATGTCCCGCTTCTTTCATTAATCCGTAAGCAACTGTTTTGCTATATACATTTAACTTTTAAGAGGAGGAAT | 0.79

Row | Sequence | cleaved RNA product abundance
45 | CGACATGTCCCGCTTCTTTCATTAATCCGTAAGCAACTGTTTTGCTATATACATTTACATTTTAAGAGGAGGAAT | 0.531
46 | CGACATGTCCCGCTTCTTTCATTAATCCGTAAGCAACTGTTTTGCTATATACATTTACCATTTAAGAGGAGGAAT | 0.381
47 | CGACATGTCCCGCTTCTTTCATTAATCCGTAAGCAACTGTTTTGCTATATACATTTACCTTTTAAGAGGAGGAAT | 0.434
48 | CGACATGTCCCGCTTCTTTCATTAATCCGTAAGCAACTGTTTTGCTATATACATTTACGTTTTAAGAGGAGGAAT | 0.475
49 | CGACATGTCCCGCTTCTTTCATTAATCCGTAAGCAACTGTTTTGCTATATACATTTACTTTTTAAGAGGAGGAAT | 0.641
50 | CGACATGTCCCGCTTCTTTCATTAATCCGTAAGCAACTGTTTTGCTATATACATTTATCTTTTAAGAGGAGGAAT | 0.536
51 | CGACATGTCCCGCTTCTTTCATTAATCCGTAAGCAACTGTTTTGCTATATACATTTCCCTTTTAAGAGGAGGAAT | 0.212
52 | CGACATGTCCCGCTTCTTTCATTAATCCGTAAGCAACTGTTTTGCTATATACCTTTACCTTTTAAGAGGAGGAAT | 0.207
53 | CGACATGTCCCGCTTCTTTCATTAATCCGTAAGCAACTGTTTTGCTATATACTTTTACCTTTTAAGAGGAGGAAT | 0.307
54 | CGACATGTCCCGCTTCTTTCATTAATCCGTAAGCAACTGTTTTGCTATATATATTTACCTTTTAAGAGGAGGAAT | 0.449
55 | CGACATGTCCCGCTTCTTTCATTAATCCGTAAGCAACTGTTTTGCTATGTACATTTACCTTTTAAGAGGAGGAAT | 0.0895
56 | CGACATGTCCCGCTTCTTTCATTAATCCGTAAGCAACTGTTTTGGTATATACATTTACCTTTTAAGAGGAGGAAT | 0.312
57 | CGACATGTCCCGCTTCTTTCATTAATCCGTAAGCAACTGTTTTGTTATATACATTTACCTTTTAAGAGGAGGAAT | 0.391
58 | CGACATGTCCCGCTTCTTTCATTAATCCGTAAGCAACTGTTTTTCTATATACATTTACCTTTTAAGAGGAGGAAT | 0.508
59 | CGACATGTCCCGCTTCTTTCATTAATCCGTAAGCAACTTTTTTGCTATATACATTTACCTTTTAAGAGGAGGAAT | 0.82
60 | CGACATGTCCCGCTTCTTTCATTAATCCGTAAGCAATTGTTTTGCTATATACATTTACCTTTTAAGAGGAGGAAT | 0.524
61 | CGACATGTCCCGCTTCTTTCATTAATCCGTAAGCATCTGTTTTGCTATATACATTTACCTTTTAAGAGGAGGAAT | 0.322
62 | CGACATGTCCCGCTTCTTTCATTAATCCGTAAGCTACTGTTTTGCTATATACATTTACCTTTTAAGAGGAGGAAT | 0.123
63 | CGACATGTCCCGCTTCTTTCATTAATCCGTAAGGAACTGTTTTGCTATATACATTTACCTTTTAAGAGGAGGAAT | 0.32
64 | CGACATGTCCCGCTTCTTTCATTAATCCGTAATCAACTGTTTTGCTATATACATTTACCTTTTAAGAGGAGGAAT | 0.265
65 | CGACATGTCCCGCTTCTTTCATTAATCCGTCAACAACTGTTTTGCTATATACATTTACCTTTTAAGAGGAGGAAT | 0.384
66 | CGACATGTCCCGCTTCTTTCATTAATCCGTCAGAAACTGTTTTGCTATATACATTTACCTTTTAAGAGGAGGAAT | 0.185
